± gives the uncertainty stated by the source.
Assay: amyloid nucleation score (Sup35N fusion, yeast selection) (log enrichment); library NNK3; higher = more nucleation; inactive = no reads after selection
Method in brief: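 Plasmid inserts were Illumina-sequenced at input and output from psi-negative yeast expressing Sup35N fused to peptides of 20 random codons. The yeast were induced with 100 μM copper sulfate for 24 hours and grown 7 days at 30°C on medium lacking adenine and uracil, and sequences with under 100 input reads were excluded. Nucleation score is the DiMSum log enrichment of output over input reads, centred on the mode score of non-aggregating sequences.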
In the case of GRTYSGYTGWRGVLGHDLVM, the amyloid nucleation score is reported as “inactive”. In the case of GRYHDGAAQWGRHNVFRSSA, the amyloid nucleation score is reported as “inactive”. For GSALCHCLCNMEVMSYFVAF, the amyloid nucleation score was “inactive”. In the case of GSCFVKEVSGGHMLGS, the amyloid nucleation score is reported as “inactive”. With GSDEEESLNCSYASSLTSVC the amyloid nucleation score was “inactive”. In the case of GSFGPIFQWNTIGALGFFG, the amyloid nucleation score is reported as 2.19 ± 0.059. With GSGGAMELVRFYYLNVAVCV the amyloid nucleation score was “inactive”. In the case of GSKLICIVWLFLLFG, the amyloid nucleation score is reported as “inactive”. In the case of GSLRNPVSGRLENVGGRAWG, the amyloid nucleation score is reported as “inactive”. GSMSLIYYGLRRKVMGYVLS showed an amyloid nucleation score of 0.316 ± 0.7. With GSMTFNYTLEGLNYHNDTKE the amyloid nucleation score was “inactive”. Work on GSMVVEFMYYHPTPTRGAWA yielded an amyloid nucleation score of 0.8 ± 0.17. Work on GSPFYIFRVINLYT yielded an amyloid nucleation score of 2.93 ± 0.049. In the case of GSPQVSAAGQF, the amyloid nucleation score is reported as “inactive”. In the case of GSRDYCVVNSIESDNCFQGW, the amyloid nucleation score is reported as “inactive”. With GSRRWFEFFVPWLQLD the amyloid nucleation score was “inactive”. With GSSGENFVNYSKVTKSDLLY the amyloid nucleation score was “inactive”. For GSSVVS, the amyloid nucleation score was “inactive”. In the case of GSTCSDLLALYPWYVRIKEI, the amyloid nucleation score is reported as “inactive”. In the case of GSVGFIIKGWWSTE, the amyloid nucleation score is reported as 0.621 ± 0.26. Substance GSWMCVMLRVFCSCSWLYCS has an amyloid nucleation score of -0.018 ± 0.93. For GSWTVLQNRHQAERVVSVYR, the amyloid nucleation score was “inactive”. For GSYFRATACPSLFCSFRVEW, the amyloid nucleation score was “inactive”. Work on GSYLQGMRCVADWDNGEQLR yielded an amyloid nucleation score of 1.97 ± 0.091. For GSYMYKKGLQF, the amyloid nucleation score was “inactive”. In the case of GSYRLLY, the amyloid nucleation score is reported as “inactive”. With GSYYWGGIGFTSEI the amyloid nucleation score was 0.846 ± 0.14. With GTLISEVCIFQ the amyloid nucleation score was “inactive”. With GTLWNSIFACVFQCSERSIM the amyloid nucleation score was “inactive”. For GTPYCICALSMHSTWDCN, the amyloid nucleation score was 1.64 ± 0.081. In the case of GTRLRVGILIPRWDSGTFGF, the amyloid nucleation score is reported as “inactive”. In the case of GTYFSCVYGTKKL, the amyloid nucleation score is reported as “inactive”. With GVFCSVINLIDATVVN the amyloid nucleation score was “inactive”. In the case of GVFERR, the amyloid nucleation score is reported as “inactive”. For GVFRPMWVLARVDSQNLASL, the amyloid nucleation score was “inactive”. For GVGATATTFWGVRWVRRSTN, the amyloid nucleation score was “inactive”. For GVGFQGYVTRGKNRLRDRAQ, the amyloid nucleation score was “inactive”. In the case of GVGPVGRF, the amyloid nucleation score is reported as “inactive”. In the case of GVISVFWMLWYLYPSLL, the amyloid nucleation score is reported as “inactive”. GVLRLVISEHDLDETFVFMT showed an amyloid nucleation score of 0.189 ± 0.43. For GVMVPTALLISNPSRRFHWL, the amyloid nucleation score was “inactive”. For GVRNGPKLILFYLRSWHEAY, the amyloid nucleation score was “inactive”. With GVSLATSYKMLLGVIVLGME the amyloid nucleation score was 0.697 ± 0.18. In the case of GVSSCFWSSFEQKFMKLSSV, the amyloid nucleation score is reported as “inactive”. With GVSYSLCLLIGLNRIRMGMV the amyloid nucleation score was “inactive”. In the case of GVTCKHRPAKYVQDRMNF, the amyloid nucleation score is reported as “inactive”. In the case of GVWKEHVTRAAVVSWKEGVN, the amyloid nucleation score is reported as “inactive”. For GWHYMYSGYANYIGFSLPLY, the amyloid nucleation score was “inactive”. In the case of GWMNACT, the amyloid nucleation score is reported as 0.356 ± 0.34. In the case of GWMYTCRDAHYLDGWRLVHD, the amyloid nucleation score is reported as “inactive”. For GWNSRM, the amyloid nucleation score was “inactive”. In the case of GWRFMLFRAQLFIWMIICFC, the amyloid nucleation score is reported as “inactive”. With GWSYRDLTMVGVNELFV the amyloid nucleation score was “inactive”. Work on GWTLQWIVWI yielded an amyloid nucleation score of 0.081 ± 0.81. With GWYLYIVTG the amyloid nucleation score was “inactive”. For GYDGRGSHAL, the amyloid nucleation score was “inactive”. For GYECLIVFFMRLLSIPVVSD, the amyloid nucleation score was “inactive”. In the case of GYKATQLLSGGPYNLCVGGT, the amyloid nucleation score is reported as “inactive”. With GYLWVLRLPGVSEFIEMDLQ the amyloid nucleation score was “inactive”. In the case of GYLYDFLPCP, the amyloid nucleation score is reported as -0.497 ± 0.7. With GYNFNEENINMLHQREFSLS the amyloid nucleation score was “inactive”. In the case of GYNICWTPWYAVLDGVTKML, the amyloid nucleation score is reported as “inactive”. In the case of GYNIMLYMLKYS, the amyloid nucleation score is reported as “inactive”. With GYNVVKLCFIIILFVVEESS the amyloid nucleation score was “inactive”. With GYWGTLSERPYTELIAGTSI the amyloid nucleation score was “inactive”. With HCAMCWGILEFEISMFAMEW the amyloid nucleation score was “inactive”. In the case of HCFFDFAYLTRCSSLRSKRC, the amyloid nucleation score is reported as “inactive”. With HCFVANGFLD the amyloid nucleation score was “inactive”. In the case of HCGWMAFFISLAPQFVYVLI, the amyloid nucleation score is reported as “inactive”. For HCKRYNVERKNFCDLHNQRY, the amyloid nucleation score was “inactive”. In the case of HCVRVASWGT, the amyloid nucleation score is reported as “inactive”. With HDLAGQFISV the amyloid nucleation score was “inactive”. HDNRDDRIVFFARLDHSRRS showed an amyloid nucleation score of 0.626 ± 0.34. HDRDHDMINSFIAFRQYWPW showed an amyloid nucleation score of 0.339 ± 0.34. For HEGCSMSGRIPLLSRYMGYG, the amyloid nucleation score was “inactive”. For HFFMLGLYTSACHLESNYDC, the amyloid nucleation score was 0.758 ± 0.1. In the case of HFIASRGSGNLKVAFTDSQT, the amyloid nucleation score is reported as 1.23 ± 0.1. For HFITCELGFGDKGSIFFIAG, the amyloid nucleation score was “inactive”. For HFLHYRPTGNHRLFWIRKDY, the amyloid nucleation score was “inactive”. With HFQIIC the amyloid nucleation score was “inactive”. For HFSYKSKCVGGRFLNDIDVY, the amyloid nucleation score was “inactive”. With HFVKVE the amyloid nucleation score was “inactive”. In the case of HGIRYTCWRWECSNVGGSSS, the amyloid nucleation score is reported as “inactive”. With HGSYLMRILR the amyloid nucleation score was “inactive”. In the case of HGTAGLPK, the amyloid nucleation score is reported as 0.807 ± 0.14. For HGVPSLLICWRVLNRSIFMV, the amyloid nucleation score was “inactive”. In the case of HHYLTHNRLVIKHHYRKYYD, the amyloid nucleation score is reported as “inactive”. For HIMSEGHSLAMGCTCSNNYP, the amyloid nucleation score was “inactive”. With HIVKIRSG the amyloid nucleation score was “inactive”. With HIVPAVCT the amyloid nucleation score was “inactive”. In the case of HKASKLVYLQWCRHECWSLV, the amyloid nucleation score is reported as “inactive”. With HKGAQPVKVKSGQSDTRPPS the amyloid nucleation score was “inactive”. In the case of HKLAKTNRSSIIVCGNRVLL, the amyloid nucleation score is reported as 0.916 ± 0.11. With HKLVFEHRLLVGPRNVDIFL the amyloid nucleation score was “inactive”. In the case of HKRLGPLHYRLICG, the amyloid nucleation score is reported as “inactive”. With HKYKQIWMFPEGPV the amyloid nucleation score was “inactive”. In the case of HLAMWFNHLSLDCL, the amyloid nucleation score is reported as “inactive”. For HLGKPKEFMTIAGGLHCLML, the amyloid nucleation score was “inactive”. With HLGYTVYSRTMRSSFVFRVL the amyloid nucleation score was “inactive”. In the case of HLNTSLETLKVLMVTQPTGN, the amyloid nucleation score is reported as “inactive”. With HLRVRCLSF the amyloid nucleation score was “inactive”. In the case of HLVRIASIRLNCDPLYRSVV, the amyloid nucleation score is reported as “inactive”. With HLWCKPRLWKSLFVPYD the amyloid nucleation score was “inactive”. In the case of HLWHSVWYALRDSPSLGFFI, the amyloid nucleation score is reported as “inactive”. In the case of HLWVNRDQWLVVLTEFSRFW, the amyloid nucleation score is reported as “inactive”. HLYHENSVFQLCVCTFVYSS gave an amyloid nucleation score of 2.91 ± 0.069. With HLYYAP the amyloid nucleation score was “inactive”. For HMIKVIVLCMMRFFIKSKNS, the amyloid nucleation score was “inactive”. For HMLLVD, the amyloid nucleation score was “inactive”. For HMSQYGRLCKMATLTFT, the amyloid nucleation score was “inactive”. With HNEHILSQ the amyloid nucleation score was “inactive”. For HNETKLCSHMLGVMGKNCGE, the amyloid nucleation score was “inactive”. HNLNIHYMISRVNAYTCTFI gave an amyloid nucleation score of 2.5 ± 0.074. For HNLNLDGLMSKSSFTPMVLL, the amyloid nucleation score was “inactive”. In the case of HNLTNLVSILGNAS, the amyloid nucleation score is reported as “inactive”. Substance HNWNRFTQSILWGTYNFFVG has an amyloid nucleation score of 2.26 ± 0.085. For HPYSNVWMSL, the amyloid nucleation score was “inactive”. In the case of HQIQLVATHPTEILHAGTSN, the amyloid nucleation score is reported as “inactive”. In the case of HQKKMRFALR, the amyloid nucleation score is reported as “inactive”. With HRCDAWYYRS the amyloid nucleation score was “inactive”. For HRINWRIHTTYISTYWKKCM, the amyloid nucleation score was “inactive”. For HRIVHDSVLKRVFDYFR, the amyloid nucleation score was “inactive”. In the case of HRIVTPPNDLWGVWASTV, the amyloid nucleation score is reported as “inactive”. In the case of HRKSGMVIYFTVPWFMKRNC, the amyloid nucleation score is reported as “inactive”. In the case of HSAYVVKWSSRTTPKFFSLW, the amyloid nucleation score is reported as “inactive”. With HSCFCQCVSARYCDYSSVTR the amyloid nucleation score was “inactive”. With HSDKCDCSAVDDLLRRVVL the amyloid nucleation score was “inactive”. For HSIHSDNRVLWLFDWSLSSR, the amyloid nucleation score was “inactive”. For HSLDRKYSWRI, the amyloid nucleation score was “inactive”. In the case of HSLTENAKREIT, the amyloid nucleation score is reported as “inactive”. For HSLVVNSSSERRYG, the amyloid nucleation score was “inactive”. In the case of HSMALITSSRVLVRVLTIMR, the amyloid nucleation score is reported as “inactive”. In the case of HSNECFLGDSSNWWVYWAVR, the amyloid nucleation score is reported as “inactive”. In the case of HSSLNGRNG, the amyloid nucleation score is reported as “inactive”. HSSVDIQRFCIFYINQCVPK showed an amyloid nucleation score of 2.45 ± 0.072. Substance HSWNKCDVYAWGLCTFISWC has an amyloid nucleation score of 0.987 ± 0.096. For HTCVD, the amyloid nucleation score was “inactive”. For HTIRL, the amyloid nucleation score was “inactive”. With HTLRWE the amyloid nucleation score was “inactive”. With HTSPWVELPVGISRTCDEDR the amyloid nucleation score was “inactive”. With HTTALIGANDSA the amyloid nucleation score was 0.024 ± 0.46. HTWSCCYFLS showed an amyloid nucleation score of 2.54 ± 0.063. With HVAIPTGLSKSNSQLYS the amyloid nucleation score was “inactive”. For HVFCHVPNPCLVGSMLTLGD, the amyloid nucleation score was “inactive”. Work on HVFSITLAVGTYLLTRLYSQ yielded an amyloid nucleation score of 1.07 ± 0.1. In the case of HVPGRIWDVFTRLLNEVLTN, the amyloid nucleation score is reported as “inactive”. Substance HVSQTWLGRGADSGHWPRQG has an amyloid nucleation score of 0.325 ± 0.46. For HVSVFMCLCTVDTR, the amyloid nucleation score was 1.33 ± 0.078. With HWTGVAELLAGYCV the amyloid nucleation score was “inactive”. In the case of HYGEFHKTNCARYRYFI, the amyloid nucleation score is reported as “inactive”. With HYLYRNCNVAVTVRSLTV the amyloid nucleation score was “inactive”. Substance HYSAFTRQSVSSKDTDT has an amyloid nucleation score of -0.582 ± 0.76. With HYTTASFDVDNPLRLLLLLQ the amyloid nucleation score was “inactive”. HYTVDANNIVFYILH gave an amyloid nucleation score of 3.11 ± 0.076. For HYYNSHSWATTTT, the amyloid nucleation score was “inactive”. With IAFLAMHLFVASWFPR the amyloid nucleation score was “inactive”. IAHISLQNIVDVMGPNRSMY gave an amyloid nucleation score of 1.44 ± 0.14. In the case of IALIICEGLPRMRGSSGPVG, the amyloid nucleation score is reported as “inactive”. In the case of IALSLLKTAKIMY, the amyloid nucleation score is reported as “inactive”.
